Experimental data from patent US20220040304A1, “A COMPOSITION FOR CANCER CELL DEATH AND ITS USE” (Industry-University Cooperation Foundation Hanyang …, priority 2018, published 2022).

Key:
[1] = Bioluminescence assay of purified proteins with Co-h substrate (BRET); format: physicochemical; conditions: protein 1 μM, Co-h 50 μM, 1×PBS
Experimental: In addition, 100 μL of buffer (1×PBS) containing the protein purified in Example 1 (final concentration: 1 μM) was dispensed into a 96-well plate (SPL Cell Culture Plate, 96 well (SPL, Cat #30196)), and bioluminescence assay was then performed using 50 μL of buffer (1×PBS) containing a Co-h substrate solution (final concentration: 50 μM), which is a wild-type 2-deoxy derivative. Bioluminescence intensity was immediately measured at a wavelength of 300 to 800 nm using a Thermo Scientific™ Varioskan™ Flash Multimode Reader.

[2] = Stability of bioluminescence intensity in PBS or normal mouse serum; conditions: buffer (1×PBS) or normal mouse serum, 37° C., protein 10 μM, Co-h 150 μM
Experimental: Bioluminescence assay was performed by reaction of 30 μL of buffer (1×PBS) containing the purified protein RLuc8.6 or RLuc8.6-KR-LP protein, or RLuc8 or RLuc8-MS-LP protein (final concentration: 10 μM) and 0.8 μL of a Co-h substrate solution (final concentration: 150 μM) in an incubator (37° C.). 30 μL of normal mouse serum (Jackson ImmunoResearch, USA) containing the purified protein (final concentration: 10 μM) and 0.8 μL of a Co-h substrate solution (final concentration: 150 μM) were reacted in an incubator (37° C.). Bioluminescence intensity was immediately measured using GLOMAX.

Molecule | emission in bioluminescence assay (BRET) [1] | luminescence intensity with increasing reaction time (stability) [2]
RLuc8.6: third protein, mutant Renilla luciferase 8.6 providing light, 38 kDa (protein, RLuc8.6, third protein, mutant Renilla luciferase 8.6 providing light, 38 kDa) MASKVYDPEQRKRMITGPQWWARCKQMNVLDSFINYYDSEKHAENAVIFLHGNATSSYLWRHVVPHIEPVARCIIPDLIGMGKSGKSGNGSYRLLDHYKYLTAWFELLNLPKKIIFVGHDWGSALAFHYAYEHQDRIKAIVHMESVVDVIESWMGWPDIEEELALIKSEEGEKMVLENNFFVETLLPSKIMRKLEPEEFAAYLEPFKEKGEVRRPTLSWPREIPLVKGGKPDVVQIVRNYNAYLRASDDLPKLFIESDPGFFYNAIVEGAKKFPNTEFVKVKGLHFLQEDAPDEMGKYIKSFVERVLKNEQ | 535 nm | constant
RLuc8: third protein, mutant Renilla luciferase 8 providing light, 38 kDa (protein, RLuc8) MASKVYDPEQRKRMITGPQWWARCKQMNVLDSFINYYDSEKHAENAVIFLHGNATSSYLWRHVVPHIEPVARCIIPDLIGMGKSGKSGNGSYRLLDHYKYLTAWFELLNLPKKIIFVGHDWGAALAFHYAYEHQDRIKAIVHMESVVDVIESWDEWPDIEEDIALIKSEEGEKMVLENNFFVETVLPSKIMRKLEPEEFAAYLEPFKEKGEVRRPTLSWPREIPLVKGGKPDVVQIVRNYNAYLRASDDLPKLFIESDPGFFSNAIVEGAKKFPNTEFVKVKGLHFLQEDAPDEMGKYIKSFVERVLKNEQ | 480 nm | –
